Source: patent publication US20240150797A1, “BIOCATALYTICAL PRODUCTION OF DIHYDROCHALCONES” (Symrise AG, priority 2021, published 2024)

What was measured:
Type in all cases: biochemical
Settings in all cases: purified CHI in 50 mM PBS, 100 μM substrate, 25° C.
[1] = Specific activity of purified CHI, absorbance decrease at 384 nm, hesperetin chalcone
Protocol: (§1) E. coli BL21 (DE3) cells containing one of the pET28b plasmids from Table 2 or Table 3 were used to inoculate 1 L LB medium at OD of 0.1. Cells were incubated at 37° C., 250 rpm until the OD reached 0.4-0.6 and induced by supplementing with 0.1 mM IPTG. After protein expression at 28° C., 250 rpm for 16 h, the cells were harvested by centrifugation at 4,000×g for 15 min. The harvested cells were lysed with 0.5 mg/mL lysozyme (Sigma-Aldrich), 0.4 U/mL Benzonase (Sigma-Aldrich) and BugBuster (Merck) at room temperature for 0.5 h to obtain a crude cell extract. The crude extract was centrifuged at 10,000×g for 30 min to remove the pellet. Recombinant proteins were purified by Ni-affinity chromatography (GE Healthcare). The supernatant of the crude extract was loaded on the column with 20 mM imidazole. The column was washed by 5 column volumes of 30 mM imidazole with 20 mM PBS (pH 7.4) and 500 mM NaCl. The target proteins were eluted by 150 mM imidazole with 20 mM PBS (pH 7.4) and 500 mM NaCl. Buffer exchange with 50 mM PBS (pH 7.5) was achieved by ultrafiltration with Amicon Ultra-15 (Merck). The activity of the respective purified enzyme was determined by measuring the absorbance decrease at 384 nm in the reaction mix (CHI in 50 mM PBS with 100 μM of either naringenin chalcone, hesperetin chalcone, eriodictyol chalcone, homoeriodictyol chalcone or 4-O-methyl butein at 25° C.).

[2] = Specific activity of purified CHI, absorbance decrease at 384 nm, homoeriodictyol chalcone
Protocol: as §1

[3] = Specific activity of purified CHI, absorbance decrease at 384 nm, naringenin chalcone
Protocol: as §1

[4] = Specific activity of purified CHI, absorbance decrease at 384 nm, eriodictyol chalcone
Protocol: as §1

[5] = Specific activity of purified CHI, absorbance decrease at 384 nm, 4-O-methyl butein
Protocol: as §1

Molecule | Specific activity, Hesperetin chalcone [1] | Specific activity, Homoeriodctiol chalcone [2] | Specific activity, Naringenin chalcone [3] | Specific activity, Eriodictyol chalcone [4] | Specific activity, 4-O-methyl butein [5]
CHI1: Chalcone isomerase from Fusibacter sp. 3D3, access no. WP_069876268.1 (protein, Fusibacter sp. 3D3) SYVPEFKPMRSFILNNVRSDNDRPKAFRWLYKQHVPESISQFRPYCTKYATYHALPLVEGAEQFGTYNWIMTEHYWNFNIFQDKGLGHSRGLAFTEAYPHDFMEITCQPPSNTLRQSGWQGSAEGYHPIVFCFAPIFWENDFKGSERLTDDGANFRWLFFLSYPEGVTVEEGDQWFLETFAKEAAEMPEVIRFLSSRVMDSPRINPFDRIVELWFDDSEAWHNAMVKNGHLFTKPAWSKVDQFPFFEAYKDITGVFIMDRPDSDHLAQWQGYITTR | 16.7 | 11.3 | 21.3 | 18.2 | 0.2
CHI2: Chalcone isomerase from Tepidanaerobacter acetatoxydans, access no. WP_013779275.1 (protein, Tepidanaerobacter acetatoxydans) DTEFKPMRSLIYVGVAKEEYRHKLKNWLYRYHIPDSISQFAPYVTKYAFYNALPVPPEGERFGAYNMQLTEHYWLINPMNPQLKIKAFTEFFPVDVLKWQGNIPDDADADSVNIEGDAARSSGGDNGMPPFIFAFIPFWWEEDFKGAGRTVEDGPNYRWQFLIQYPNGISLEEGDQWFYKKLVPAFKEMPEVNRFLTSRVIRDVNDCQFHRVIEMWFDGPEEWYRAAVEKGKSIERPHWATAEEFPYLKPKFQIASLFLTDIADSDNYSQYRGYITMR | 93.5 | 19.9 | 54.8 | 25.4 | 0.8
CHI12: Chalcone isomerase from Holophaga foetida, access no. WP_005036737.1 (protein, listed as Holophaga foetida) TVEFCPMRSLIYVGLSKEKYRHLLQNWLYRIHIPDSISQFGPYVTKYAFYNALPVPPEGERFGTIKMQLTEHYWQCNPFQQAVAVKTFKEVFPIDVLRWQGNMPDESDGAVELEGDEARSAKGGQGAKPFIFAFVPLWWEEDIKGKMRTIADGPNYRWQFVMKYPEGVSQEQGDKWFLEEVAPAFAAMPEVNRILSSKIIQNVNGCSFNRVVEMWFDGPDEWYAAAVTKAAALPKPTWAKQDKFPFLASDYEFASVFLTDYATSDNLSQYRGYITLR | 36.5 |  | 32.4 | 28.2 | 0.2
CHIera Mut4: Chalcone isomerase variant 4 from Eubacterium ramulus, genetically engineered (protein, listed as Eubacterium ramulus) MADFKFEPMRSLIYVDCVSEDYRPKLQRWIYKVHIPDSISQFEPYVTKYAFYPSFPIPPQGDRFGYARMQLTEHHWLVSELDPRLEIKAIAETFPMDVLVWQGQIPAAAHTDAQIDSDGDAGRAAKKSNNAEGNPFIFAFLPMWWEKDLKGKGRTIEDGANYRFNMTIGFPEGVDKAEGEKWLFEKVVPILQAAPECTRVLASAVKKDINGCVMDWVLEIWFENQSGWYKVMVDDMKALEKPSWAQQDAFPFLKPYHNVCSAAVADYTPSNNLANYRGYITMR | 4.7 | 4.8 | 2.3 | 8.9 | 
CHIera Mut7: Chalcone isomerase variant 7 from Eubacterium ramulus, genetically engineered (protein, listed as Eubacterium ramulus) MADFKFEPMRSLIYVDCVSEDYRPKLQRWIYKVHIPDSISTFEPYVTKYAFYPSFPIPPQGDRFGYARMQLTEHHWLVSELDPRLEIRAIAETFPMDVLVWQGQIPAAAHTDAQIDSDGDAGDAARKSNNAEGNPFIFAFLPMWWEKDLKGKGRTIEDGANYRFNMTIGFPEGVDKAEGEKWLFEKVVPILQAAPECTRVLASAVKKDINGCVMDWVLEIWFENQSGWYKVMVDDMKALEKPSWAQQDAFPFLKPYHNVCSAAVADYTPSNNLANYRGYITMR | 28.4 | 62.2 | 61.4 | 181.3 | 
CHIera Mut9: Chalcone isomerase variant 9 from Eubacterium ramulus, genetically engineered (protein, listed as Eubacterium ramulus) MADFKFEPMRSLIYVDCVSEDYRPKLQRWIYKVHIPDSISQFEPYVTKYAFYPSFPIPPQGDRFGYARMQLTEHHWLVSMLDPRLEIKAIAETFPMDVLVWQGQIPAAAHTDAQIDSDGDAGNAARKSNNAEGNPFIFAFLPMWWEKDLKGKGRTIEDGANYRFNMTIGFPEGVDKAEGEKWLFEKVVPILQAAPECTRVLASAVKKDINGCVMDWVLEIWFENQSGWYKVMVDDMKALEKPSWAQQDAFPFLKPYHNVCSAAVADYTPSNNLANYRGYITMR | 57.4 | 14.4 | 67.5 | 43.7 | 
CHIera Mut10: Chalcone isomerase variant 10 from Eubacterium ramulus, genetically engineered (protein, listed as Eubacterium ramulus) MADFKFEPMRSLIYVDCVSEDYRPKLQRWIYKVHIPDSISQFEPYVTKYAFYPSFPIPPQGDRFGYARMQLTEHHWLVSILDPRLEIKAIAETFPMDVLVWQGQIPAAAHTDAQIDSDGDAGDAARKSNNAEGNPFIFAFLPMWWEKDLKGKGRTIEDGANYRFNMTIGFPEGVDKAEGEKWLFEKVVPILQAAPECTRVLASAVKKDINGCVMDWVLEIWFENQSGWYKVMVDDMKALEKPSWAQQDAFPFLKPYHNVCSAAVADYTPSNNLANYRGYITMR | 96.4 | 17.9 | 26.4 | 60.0 | 
CHIera Mut11: Chalcone isomerase variant 11 from Eubacterium ramulus, genetically engineered (protein, listed as Eubacterium ramulus) MADFKFEPMRSLIYVDCVSEDYRPKLQRWIYKVHIPDSISQFEPYVTKYAFYPSFPIPPQGDRFGYARMQLTEHHWLVSPLDPRLEIKAIAETFPMDVLVWQGQIPAAAHTDAQIDSDGDAGDAARKSNNAEGNPFIFAFLPMWWEKDLKGKGRTIEDGANYRFNMTIGFPEGVDKAEGEKWLFEKVVPILQAAPECTRVLASAVKKDINGCVMDWVLEIWFENQSGWYKVMVDDMKALEKPSWAQQDAFPFLKPYHNVCSAAVADYTPSNNLANYRGYITMR | 75.5 | 30.8 | 76.8 | 91.1 | 
CHIera Mut12: Chalcone isomerase variant 12 from Eubacterium ramulus, genetically engineered (protein, listed as Eubacterium ramulus) MADFKFEPMRSLIYVDCVSEDYRPKLQRWIYKVHIPDSISKFEPYVTKYAFYPSFPIPPQGDRFGYARMQLTEHHWLVSPLDPRLEINAIAETFPMDVLVWQGQIPAAAHTDAQIDSDGDAARAARKSNNAEGNPFIFAFLPMWWEKDLKGKGRTIEDGANYRFNMTIGFPEGVDKAEGEKWLFEKVVPILQAAPECTRVLASAVKKDINGCVMDWVLEIWFENQSGWYKVMVDDMKALEKPSWAQQDAFPFLKPYHNVCSAAVADYTPSNNLANYRGYITMR | 24.9 | 9.8 | 11.0 | 19.9 | 
CHIera Mut14: Chalcone isomerase variant 14 from Eubacterium ramulus, genetically engineered (protein, listed as Eubacterium ramulus) MADFKFEPMRSLIYVDCVSEDYRPKLQRWIYKVHIPDSISKFEPYVTKYAFYPSFPIPPQGDRFGYARMQLTEHHWLVSELDPRLEINAIAETFPMDVLVWQGQIPAAAHTDAQIDSDGDAHRAARKSNNAEGNPFIFAFLPMWWEKDLKGKGRTIEDGANYRFNMTIGFPEGVDKAEGEKWLFEKVVPILQAAPECTRVLASAVKKDINGCVMDWVLEIWFENQSGWYKVMVDDMKALEKPSWAQQDAFPFLKPYHNVCSAAVADYTPSNNLANYRGYITMR | 4.5 | 15.6 | 29.5 | 27.2 | 
